Measurements as given in the supplement of paper PMC9112550, “Optimization of the antimicrobial peptide Bac7 by deep mutational scanning” (BMC Biology, 2022).

Tested on: Escherichia coli TOP10
Experiment: shrunken log2 fold change of peptide-encoding DNA abundance (4.5 h post-induction vs induction); higher = less antimicrobial activity (less host growth inhibition)
Settings: time post-induction: 4.5 h; library: site-saturation at positions 5, 18, 19, 20
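Note: peptides expressed intracellularly from a pBAD plasmid library in pooled LB shake-flask culture, induced with 0.3% L-arabinose, DNA abundance read by NGS, three biological replicates, DESeq2 with apeglm shrinkage.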

Sequence | shrunken log2 fold change
RRIRWRPPRLPRPRPRPFKFPRP | -0.174
RRIRQRPPRLPRPRPRPPHVPRP | 0.15
RRIRFRPPRLPRPRPRPQSIPRP | 0.0159
RRIRTRPPRLPRPRPRPYFIPRP | -0.872
RRIRFRPPRLPRPRPRPCGDPRP | -0.01
RRIRARPPRLPRPRPRPFEGPRP | 0.0201
RRIRMRPPRLPRPRPRPGPVPRP | 1.14
RRIRPRPPRLPRPRPRPKICPRP | -0.0701
RRIRQRPPRLPRPRPRPLQVPRP | -0.0738
RRIRTRPPRLPRPRPRPPGSPRP | 0.00863
RRIRPRPPRLPRPRPRPPLSPRP | 0.161
RRIRPRPPRLPRPRPRPDFHPRP | -0.26
RRIRVRPPRLPRPRPRPLKSPRP | -0.137
RRIRMRPPRLPRPRPRPGDQPRP | 1.13
RRIRGRPPRLPRPRPRPEKAPRP | 0.144
RRIRSRPPRLPRPRPRPMYQPRP | -0.594
RRIRMRPPRLPRPRPRPQDWPRP | 0.00698
RRIRTRPPRLPRPRPRPTKHPRP | -0.258
RRIRYRPPRLPRPRPRPYTDPRP | -0.396
RRIRKRPPRLPRPRPRPTECPRP | 0.119
RRIRMRPPRLPRPRPRPSQKPRP | 0.246
RRIRARPPRLPRPRPRPKTQPRP | 0.0119
RRIRGRPPRLPRPRPRPCSFPRP | 0.2
RRIRHRPPRLPRPRPRPASQPRP | 0.045
RRIRTRPPRLPRPRPRPGVFPRP | -0.0409

Sequence | shrunken log2 fold change
RRIRIRPPRLPRPRPRPDYNPRP | -0.998
RRIRVRPPRLPRPRPRPFKYPRP | -0.0213
RRIRDRPPRLPRPRPRPHDYPRP | -0.0787
RRIRTRPPRLPRPRPRPVHHPRP | -0.321
RRIRERPPRLPRPRPRPVPYPRP | -0.132
RRIRNRPPRLPRPRPRPNHQPRP | -0.241
RRIRERPPRLPRPRPRPARNPRP | 0.194
RRIRGRPPRLPRPRPRPEEEPRP | 0.107
RRIRGRPPRLPRPRPRPRQCPRP | 0.216
RRIRMRPPRLPRPRPRPRENPRP | 0.265
RRIRYRPPRLPRPRPRPPTVPRP | -0.146
RRIRSRPPRLPRPRPRPPPHPRP | 0.752
RRIRQRPPRLPRPRPRPGVCPRP | -0.126
RRIRCRPPRLPRPRPRPWTRPRP | 0.0156
RRIRHRPPRLPRPRPRPSLPPRP | -0.328
RRIRERPPRLPRPRPRPRDLPRP | 0.023
RRIRPRPPRLPRPRPRPGYAPRP | 0.177
RRIRRRPPRLPRPRPRPIFYPRP | -0.0503
RRIRKRPPRLPRPRPRPETPPRP | 1.89
RRIRRRPPRLPRPRPRPVEPPRP | -0.0837
RRIRCRPPRLPRPRPRPKNSPRP | -0.159
RRIRWRPPRLPRPRPRPENTPRP | 0.167
RRIRYRPPRLPRPRPRPWPMPRP | -0.0578
RRIRVRPPRLPRPRPRPYVHPRP | -0.104
RRIRCRPPRLPRPRPRPKIEPRP | -0.0736

Sequence | shrunken log2 fold change
RRIRWRPPRLPRPRPRPSHDPRP | 0.023
RRIRCRPPRLPRPRPRPVECPRP | -0.142
RRIRFRPPRLPRPRPRPFPEPRP | -0.363
RRIRNRPPRLPRPRPRPHWPPRP | 0.0957
RRIRQRPPRLPRPRPRPWNCPRP | -0.0444
RRIRFRPPRLPRPRPRPDCHPRP | -0.0405
RRIRPRPPRLPRPRPRPSAFPRP | 0.191
RRIRNRPPRLPRPRPRPEPTPRP | 0.587
RRIRFRPPRLPRPRPRPLCEPRP | -0.166
RRIRRRPPRLPRPRPRPIYQPRP | 2.25
RRIRERPPRLPRPRPRPWAKPRP | -0.015
RRIRNRPPRLPRPRPRPEYDPRP | -0.0369
RRIRKRPPRLPRPRPRPIARPRP | -0.0481
RRIRLRPPRLPRPRPRPRTWPRP | 0.111
RRIRERPPRLPRPRPRPHFTPRP | -0.246
RRIRYRPPRLPRPRPRPVHNPRP | -0.353
RRIRNRPPRLPRPRPRPIQFPRP | -0.178
RRIRRRPPRLPRPRPRPPWPPRP | 0.667
RRIRHRPPRLPRPRPRPKTTPRP | -0.052
RRIRARPPRLPRPRPRPAHGPRP | 0.694
RRIRPRPPRLPRPRPRPCNNPRP | -0.177
RRIRHRPPRLPRPRPRPFPVPRP | 0.0399
RRIRRRPPRLPRPRPRPYKDPRP | -0.249
RRIRERPPRLPRPRPRPDYMPRP | 0.0229
RRIRVRPPRLPRPRPRPEVFPRP | 0.0748

Sequence | shrunken log2 fold change
RRIRRRPPRLPRPRPRPDNYPRP | -0.323
RRIRWRPPRLPRPRPRPDEFPRP | 0.196
RRIRIRPPRLPRPRPRPLVYPRP | -0.592
RRIRQRPPRLPRPRPRPPINPRP | -0.00134
RRIRTRPPRLPRPRPRPYEMPRP | -0.482
RRIRYRPPRLPRPRPRPLPTPRP | -0.0873
RRIRIRPPRLPRPRPRPWQHPRP | 0.0851
RRIRDRPPRLPRPRPRPDETPRP | 0.0461
RRIRLRPPRLPRPRPRPMAYPRP | -0.0987
RRIRDRPPRLPRPRPRPDWKPRP | 0.0755
RRIRERPPRLPRPRPRPIGTPRP | -0.976
RRIRNRPPRLPRPRPRPTWWPRP | 0.326
RRIRSRPPRLPRPRPRPKDDPRP | 0.0557
RRIRVRPPRLPRPRPRPQPDPRP | 0.23
RRIRWRPPRLPRPRPRPCQAPRP | 0.201
RRIRPRPPRLPRPRPRPNMIPRP | -0.531
RRIRTRPPRLPRPRPRPHFSPRP | 0.0329
RRIRKRPPRLPRPRPRPKGYPRP | -0.00627
RRIRCRPPRLPRPRPRPNICPRP | -0.488
RRIRFRPPRLPRPRPRPQSEPRP | 0.00741
RRIRWRPPRLPRPRPRPITIPRP | -0.162
RRIRQRPPRLPRPRPRPNGAPRP | 0.451
RRIRRRPPRLPRPRPRPNTEPRP | 0.119
RRIRFRPPRLPRPRPRPCWWPRP | 0.696
RRIRARPPRLPRPRPRPGNAPRP | 0.73

Sequence | shrunken log2 fold change
RRIRLRPPRLPRPRPRPCSEPRP | 0.0739
RRIRSRPPRLPRPRPRPRRPPRP | 0.364
RRIRNRPPRLPRPRPRPYNTPRP | -1.49
RRIRIRPPRLPRPRPRPGHAPRP | -0.0343
RRIRQRPPRLPRPRPRPPWGPRP | 0.242
RRIRFRPPRLPRPRPRPCMSPRP | -0.0366
RRIRTRPPRLPRPRPRPIKCPRP | -0.234
RRIRIRPPRLPRPRPRPMQAPRP | -0.00238
RRIRFRPPRLPRPRPRPFHQPRP | -0.192
RRIRCRPPRLPRPRPRPGNSPRP | -0.429
RRIRRRPPRLPRPRPRPDNWPRP | 0.000556
RRIRHRPPRLPRPRPRPEDAPRP | -0.0619
RRIRTRPPRLPRPRPRPSKPPRP | -0.487
RRIRNRPPRLPRPRPRPYKWPRP | -0.233
RRIRERPPRLPRPRPRPGMIPRP | -0.439
RRIRRRPPRLPRPRPRPQPKPRP | 0.761
RRIRKRPPRLPRPRPRPQFEPRP | 0.177
RRIRGRPPRLPRPRPRPHFRPRP | 0.199
RRIRKRPPRLPRPRPRPKIEPRP | -0.0694
RRIRKRPPRLPRPRPRPVDIPRP | -0.0337
RRIRRRPPRLPRPRPRPVFKPRP | -0.0974
RRIRCRPPRLPRPRPRPNREPRP | -0.134
RRIRYRPPRLPRPRPRPACIPRP | -0.389
RRIRCRPPRLPRPRPRPEAWPRP | 0.976
RRIRWRPPRLPRPRPRPHLWPRP | 0.191

Sequence | shrunken log2 fold change
RRIRHRPPRLPRPRPRPFRYPRP | -0.737
RRIRFRPPRLPRPRPRPLTGPRP | -0.196
RRIRRRPPRLPRPRPRPCEVPRP | -0.0207
RRIRDRPPRLPRPRPRPSFEPRP | 0.495
RRIRTRPPRLPRPRPRPLQLPRP | -0.167
RRIRARPPRLPRPRPRPEHQPRP | 0.399
RRIRDRPPRLPRPRPRPYWYPRP | 0.00534
RRIRARPPRLPRPRPRPIEKPRP | 0.15
RRIRCRPPRLPRPRPRPRHMPRP | -0.185
RRIRDRPPRLPRPRPRPFEEPRP | 0.0467
RRIRWRPPRLPRPRPRPHDGPRP | -0.00986
RRIRLRPPRLPRPRPRPCGVPRP | -0.339
RRIRMRPPRLPRPRPRPPIMPRP | 0.0866
RRIRFRPPRLPRPRPRPVAVPRP | 0.105
RRIRKRPPRLPRPRPRPRKQPRP | 0.224
RRIRNRPPRLPRPRPRPNYNPRP | -1.07
RRIRGRPPRLPRPRPRPRELPRP | 1.31
RRIRSRPPRLPRPRPRPCIWPRP | -0.121
RRIRPRPPRLPRPRPRPKYQPRP | -0.411
RRIRIRPPRLPRPRPRPKANPRP | -0.103
RRIRARPPRLPRPRPRPYELPRP | -0.101
RRIRARPPRLPRPRPRPDTPPRP | 0.331
RRIRIRPPRLPRPRPRPNGDPRP | 8.33e-05
RRIRVRPPRLPRPRPRPPTIPRP | 0.0741
RRIRKRPPRLPRPRPRPLDMPRP | 0.0395
